The values below come from US20230374088A1 (GENERAL HOSPITAL, published 2023).

Holding throughout (experiment): pull-down on anti-FLAG beads, anti-c-myc blot, Expi293F cells
Test [1] addresses T1, c-Myc-Gli2 (418-594aa) ZF3-mut (H503A, R516A, K521A) (human, UniProt P10070 418-594).
T1 construct: also called ZF-3 (H503A/R516A/K521A); not shown: c-myc tag from pCMV-BICEP-4 (MCS2)
T1 sequence (looked up): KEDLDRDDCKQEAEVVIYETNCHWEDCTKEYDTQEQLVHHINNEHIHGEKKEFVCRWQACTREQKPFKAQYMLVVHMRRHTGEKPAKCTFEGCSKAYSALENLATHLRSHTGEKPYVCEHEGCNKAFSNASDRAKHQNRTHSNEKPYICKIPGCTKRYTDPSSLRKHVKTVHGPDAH
The text has this: (§1) Immunoprecipitation (IP) using anti-FLAG magnetic beads. Input (cell lysate), FT (flow through), wash and beads samples were immunoblotted (IB) with anti c-Myc antibody to detect Gli2. […] The blots are representative images of a minimum of three repeats. Gli2-ZF mutants are as follows: ZF2-mut (H493A, R496A), ZF3-mut (H503A, R516A, K521A), ZF4-mut (R550A, K552A, R556A). Kif7-CC mutants are as follows: S1-mut (E500A, E501A, E502A, D505A), S2-mut (E511A, E515A), S3-mut1 (E526A, E529A) and S3-mut2 (E530A, R535A).
(§2) To narrow down the residues that participate in binding, we analyzed the model of the Kif7-SCC:Gli2-ZF complex using PDBsum server (De Beer et al., Nucleic acids research, 42, D292-D296, 2014). We performed alanine scanning mutagenesis of the charged residues on Gli2-ZF that came up as part of the binding interface in the PDBsum analysis and analyzed their binding with pull-down assay (FIG. 3D). […] We systematically mutated the residues to alanine and performed the pull-down assay with Gli2-ZF.

Test [2] addresses T2, c-Myc-Gli2 (418-594aa) ZF2-mut (H493A, R496A) (human, UniProt P10070 418-594).
T2 construct: also called Gli2 ZF-2 (H493A/R496A); not shown: c-myc tag from pCMV-BICEP-4 (MCS2)
T2 sequence (looked up): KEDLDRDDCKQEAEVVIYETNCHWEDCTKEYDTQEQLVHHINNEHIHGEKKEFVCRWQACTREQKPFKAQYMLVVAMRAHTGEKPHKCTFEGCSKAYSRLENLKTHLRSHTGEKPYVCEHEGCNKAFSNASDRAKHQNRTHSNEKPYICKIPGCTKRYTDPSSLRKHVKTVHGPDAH
Description: as §1, §2

A further test has as its target T3, c-Myc-Gli2 (418-594aa) (human, UniProt P10070 418-594).
T3 construct: Expressed in Expi293F cells for the pull-down; also called Gli2-ZF (in the pull-down); not shown: c-myc tag from pCMV-BICEP-4 (MCS2), N-terminal by the name
T3 sequence (looked up): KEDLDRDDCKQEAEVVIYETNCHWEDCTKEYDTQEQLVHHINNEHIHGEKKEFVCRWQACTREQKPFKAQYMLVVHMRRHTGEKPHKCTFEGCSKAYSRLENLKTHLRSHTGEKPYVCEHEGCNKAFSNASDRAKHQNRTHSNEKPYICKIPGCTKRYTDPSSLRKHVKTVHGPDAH
Description: as §1, §2

B1: FLAG-Kif7-CC (460-600aa) (other)
chain: PDSGIESASVEDQAAQGAGGRKEDEGAQQLLTLQNQVARLEEENRDFLAALEDAMEQYKLQSDRLREQQEEMVELRLRLELVRPGWGGPRLLNGLPPGSFVPRPHTAPLGGAHAHVLGMVPPACLPGDEVGSEQRGEQVTN
notes: Expressed in Expi293F cells for the pull-down; also called Kif7(460-600aa); not shown: FLAG tag from pCMV-BICEP-4 (MCS1), N-terminal by the name
As to B1, the binding result in test [1] and in test [2] was “no binding” each time.

B2: FLAG-Kif7-CC (460-600aa) S1-mut (E500A, E501A, E502A, D505A) (other)
chain: PDSGIESASVEDQAAQGAGGRKEDEGAQQLLTLQNQVARLAAANRAFLAALEDAMEQYKLQSDRLREQQEEMVELRLRLELVRPGWGGPRLLNGLPPGSFVPRPHTAPLGGAHAHVLGMVPPACLPGDEVGSEQRGEQVTN
notes: also called Kif7-CC S1; not shown: FLAG tag from pCMV-BICEP-4 (MCS1)
As for B2, the binding result in the test with c-Myc-Gli2 (418-594aa) is on record as “no binding”.
